From the supplement of paper PMC10065799, “High-throughput profiling of sequence recognition by tyrosine kinases and SH2 domains using bacterial peptide display” (eLife, 2023)

How the values were obtained:
[1] = system: AncSZ; assay: phosphorylation enrichment, bacterial display (enrichment ratio); higher = better substrate or ligand; peptides without Tyr show the background
[2] = target: EPHB1 (UniProt P54762); assay: as above
[3] = target: EPHB2 (UniProt P29323); assay: as above
[4] = target: FGFR1 (UniProt P11362); assay: as above
[5] = target: FGFR3 (UniProt P22607); assay: as above
[6] = system: Fer (mouse); assay: as above
[7] = target: Fes (UniProt P07332); assay: as above
[8] = target: Fyn (UniProt P06241); assay: as above
[9] = target: Hck (UniProt P08631); assay: as above
[10] = target: Jak2 (UniProt O60674); assay: as above
[11] = target: MERTK (UniProt Q12866); assay: as above
[12] = system: c-Abl (mouse); assay: as above
[13] = system: c-Src; assay: as above
[14] = target: Grb2 SH2 (UniProt P62993); assay: SH2 binding enrichment of the phosphorylated peptide, bacterial display (enrichment ratio); higher = better substrate or ligand; peptides without Tyr show the background
[15] = target: SHP2-C SH2; assay: as above
[16] = target: c-Src SH2; assay: as above
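Wherever SH2 binding enrichment of the phosphorylated peptide, bacterial display is given: peptide library displayed on the E. coli surface as eCPX fusions, selected cells deep-sequenced, score is each peptide's frequency after selection divided by its frequency in the input.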
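Wherever phosphorylation enrichment, bacterial display is given: 11-residue human phosphosite peptides and single-mutation variants displayed on the E. coli surface, counted by deep sequencing, each peptide's frequency after selection divided by its frequency in the unselected input library; frequency after pTyr selection over input frequency; kinase dosed for 20-30% of maximal phosphorylation in three min.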

Sequence of Hck (P08631 whole entry, looked up): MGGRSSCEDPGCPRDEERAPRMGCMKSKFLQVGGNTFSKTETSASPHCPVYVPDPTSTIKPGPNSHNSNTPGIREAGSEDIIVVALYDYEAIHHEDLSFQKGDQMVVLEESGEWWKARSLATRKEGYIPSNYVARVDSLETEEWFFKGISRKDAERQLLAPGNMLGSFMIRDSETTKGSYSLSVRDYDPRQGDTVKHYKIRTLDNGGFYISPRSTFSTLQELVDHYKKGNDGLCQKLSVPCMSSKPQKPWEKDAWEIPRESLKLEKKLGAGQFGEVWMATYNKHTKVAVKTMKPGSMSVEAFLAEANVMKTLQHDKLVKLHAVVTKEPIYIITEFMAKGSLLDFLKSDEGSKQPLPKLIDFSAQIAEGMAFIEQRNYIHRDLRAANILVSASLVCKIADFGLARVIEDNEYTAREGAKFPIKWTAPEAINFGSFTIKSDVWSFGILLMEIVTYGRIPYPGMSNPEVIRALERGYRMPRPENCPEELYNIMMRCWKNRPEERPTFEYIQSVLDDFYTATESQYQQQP
Sequence of Fes (P07332 whole entry, looked up): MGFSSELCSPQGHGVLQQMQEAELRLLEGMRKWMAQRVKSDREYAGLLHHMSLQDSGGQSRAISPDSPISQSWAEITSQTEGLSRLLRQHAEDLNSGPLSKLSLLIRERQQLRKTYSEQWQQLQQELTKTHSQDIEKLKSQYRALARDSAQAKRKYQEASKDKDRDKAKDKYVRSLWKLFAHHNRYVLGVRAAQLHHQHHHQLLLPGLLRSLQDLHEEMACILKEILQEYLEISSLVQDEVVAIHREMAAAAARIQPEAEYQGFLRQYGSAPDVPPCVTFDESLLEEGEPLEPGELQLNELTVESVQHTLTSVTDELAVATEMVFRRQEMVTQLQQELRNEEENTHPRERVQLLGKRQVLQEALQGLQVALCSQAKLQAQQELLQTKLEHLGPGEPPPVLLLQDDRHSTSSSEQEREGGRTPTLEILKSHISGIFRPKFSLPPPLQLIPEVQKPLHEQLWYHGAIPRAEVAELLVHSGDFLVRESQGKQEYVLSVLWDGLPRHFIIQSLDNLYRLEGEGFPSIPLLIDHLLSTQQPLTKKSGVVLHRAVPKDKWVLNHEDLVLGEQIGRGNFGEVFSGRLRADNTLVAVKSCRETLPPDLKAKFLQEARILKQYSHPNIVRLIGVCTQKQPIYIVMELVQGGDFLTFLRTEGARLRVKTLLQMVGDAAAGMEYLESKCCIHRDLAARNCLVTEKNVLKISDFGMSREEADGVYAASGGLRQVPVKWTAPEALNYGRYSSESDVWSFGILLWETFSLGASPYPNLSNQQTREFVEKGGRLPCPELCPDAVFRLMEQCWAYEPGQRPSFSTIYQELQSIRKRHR
Sequence of Fyn (P06241 whole entry, looked up): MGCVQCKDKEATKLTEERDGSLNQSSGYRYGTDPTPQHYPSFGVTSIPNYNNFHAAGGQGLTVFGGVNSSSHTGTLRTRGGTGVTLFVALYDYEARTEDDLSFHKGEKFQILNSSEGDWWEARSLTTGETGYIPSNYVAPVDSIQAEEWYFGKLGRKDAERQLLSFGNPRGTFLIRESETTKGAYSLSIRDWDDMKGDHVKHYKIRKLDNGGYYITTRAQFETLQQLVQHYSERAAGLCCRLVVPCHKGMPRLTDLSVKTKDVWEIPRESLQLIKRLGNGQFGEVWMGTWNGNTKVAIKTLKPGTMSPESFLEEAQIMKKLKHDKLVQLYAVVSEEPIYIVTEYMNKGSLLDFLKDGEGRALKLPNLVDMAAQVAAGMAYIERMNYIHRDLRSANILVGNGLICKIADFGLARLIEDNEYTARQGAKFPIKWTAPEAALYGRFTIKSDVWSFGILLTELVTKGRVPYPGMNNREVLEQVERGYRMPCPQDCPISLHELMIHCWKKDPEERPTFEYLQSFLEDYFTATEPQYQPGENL
Sequence of Jak2 (O60674 whole entry, looked up): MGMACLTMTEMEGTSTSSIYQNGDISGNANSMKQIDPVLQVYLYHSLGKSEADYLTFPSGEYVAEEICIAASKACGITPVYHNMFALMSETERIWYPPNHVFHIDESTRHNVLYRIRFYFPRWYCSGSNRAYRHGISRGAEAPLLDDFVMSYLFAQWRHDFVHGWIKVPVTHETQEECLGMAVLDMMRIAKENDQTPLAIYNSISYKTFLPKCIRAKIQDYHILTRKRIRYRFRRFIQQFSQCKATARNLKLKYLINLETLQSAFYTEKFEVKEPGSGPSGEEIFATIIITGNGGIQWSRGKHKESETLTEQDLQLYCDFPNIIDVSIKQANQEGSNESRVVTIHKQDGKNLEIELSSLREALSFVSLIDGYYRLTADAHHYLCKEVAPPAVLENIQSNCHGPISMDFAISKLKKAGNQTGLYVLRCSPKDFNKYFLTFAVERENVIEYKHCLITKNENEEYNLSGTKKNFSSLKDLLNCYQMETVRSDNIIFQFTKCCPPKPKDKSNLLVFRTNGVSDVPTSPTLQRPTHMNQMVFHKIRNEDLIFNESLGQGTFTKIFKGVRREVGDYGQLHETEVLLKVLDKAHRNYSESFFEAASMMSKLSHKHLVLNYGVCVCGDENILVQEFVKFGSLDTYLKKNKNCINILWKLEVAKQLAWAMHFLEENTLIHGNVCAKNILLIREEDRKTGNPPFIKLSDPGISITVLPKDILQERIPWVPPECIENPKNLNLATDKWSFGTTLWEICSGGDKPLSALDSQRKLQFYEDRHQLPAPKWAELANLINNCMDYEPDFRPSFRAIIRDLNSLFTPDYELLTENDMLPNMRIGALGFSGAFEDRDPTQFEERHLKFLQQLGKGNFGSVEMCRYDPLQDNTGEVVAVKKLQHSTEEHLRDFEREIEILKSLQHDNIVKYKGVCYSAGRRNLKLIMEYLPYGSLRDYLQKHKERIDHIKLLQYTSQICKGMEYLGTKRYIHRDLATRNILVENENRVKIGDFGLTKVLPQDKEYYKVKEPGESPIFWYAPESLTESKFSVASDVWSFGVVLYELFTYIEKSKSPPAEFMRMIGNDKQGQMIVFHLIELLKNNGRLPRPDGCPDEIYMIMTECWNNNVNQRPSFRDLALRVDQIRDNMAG
Sequence of FGFR1 (P11362 whole entry, looked up): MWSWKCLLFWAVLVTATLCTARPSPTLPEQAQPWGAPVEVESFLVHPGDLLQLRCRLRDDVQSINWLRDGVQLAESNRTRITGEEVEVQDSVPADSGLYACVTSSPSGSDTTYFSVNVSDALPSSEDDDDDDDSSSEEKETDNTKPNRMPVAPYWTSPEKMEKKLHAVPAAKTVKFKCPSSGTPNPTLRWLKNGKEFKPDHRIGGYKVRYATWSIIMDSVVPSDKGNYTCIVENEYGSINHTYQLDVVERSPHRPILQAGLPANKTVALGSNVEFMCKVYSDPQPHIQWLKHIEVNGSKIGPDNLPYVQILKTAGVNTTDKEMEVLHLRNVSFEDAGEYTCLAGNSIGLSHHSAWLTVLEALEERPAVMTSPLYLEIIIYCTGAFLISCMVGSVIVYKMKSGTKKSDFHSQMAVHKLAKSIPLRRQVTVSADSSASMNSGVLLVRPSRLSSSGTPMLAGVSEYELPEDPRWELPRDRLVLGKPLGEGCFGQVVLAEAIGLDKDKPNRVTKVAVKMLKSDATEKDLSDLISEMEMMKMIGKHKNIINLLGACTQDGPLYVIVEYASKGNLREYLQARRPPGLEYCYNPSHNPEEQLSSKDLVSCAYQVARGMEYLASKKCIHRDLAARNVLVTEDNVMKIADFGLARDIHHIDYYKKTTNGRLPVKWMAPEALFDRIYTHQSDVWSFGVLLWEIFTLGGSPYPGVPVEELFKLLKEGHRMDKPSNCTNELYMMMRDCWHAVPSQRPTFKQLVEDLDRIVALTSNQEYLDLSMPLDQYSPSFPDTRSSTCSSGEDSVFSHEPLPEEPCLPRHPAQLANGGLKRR
Sequence of MERTK (Q12866 whole entry, looked up): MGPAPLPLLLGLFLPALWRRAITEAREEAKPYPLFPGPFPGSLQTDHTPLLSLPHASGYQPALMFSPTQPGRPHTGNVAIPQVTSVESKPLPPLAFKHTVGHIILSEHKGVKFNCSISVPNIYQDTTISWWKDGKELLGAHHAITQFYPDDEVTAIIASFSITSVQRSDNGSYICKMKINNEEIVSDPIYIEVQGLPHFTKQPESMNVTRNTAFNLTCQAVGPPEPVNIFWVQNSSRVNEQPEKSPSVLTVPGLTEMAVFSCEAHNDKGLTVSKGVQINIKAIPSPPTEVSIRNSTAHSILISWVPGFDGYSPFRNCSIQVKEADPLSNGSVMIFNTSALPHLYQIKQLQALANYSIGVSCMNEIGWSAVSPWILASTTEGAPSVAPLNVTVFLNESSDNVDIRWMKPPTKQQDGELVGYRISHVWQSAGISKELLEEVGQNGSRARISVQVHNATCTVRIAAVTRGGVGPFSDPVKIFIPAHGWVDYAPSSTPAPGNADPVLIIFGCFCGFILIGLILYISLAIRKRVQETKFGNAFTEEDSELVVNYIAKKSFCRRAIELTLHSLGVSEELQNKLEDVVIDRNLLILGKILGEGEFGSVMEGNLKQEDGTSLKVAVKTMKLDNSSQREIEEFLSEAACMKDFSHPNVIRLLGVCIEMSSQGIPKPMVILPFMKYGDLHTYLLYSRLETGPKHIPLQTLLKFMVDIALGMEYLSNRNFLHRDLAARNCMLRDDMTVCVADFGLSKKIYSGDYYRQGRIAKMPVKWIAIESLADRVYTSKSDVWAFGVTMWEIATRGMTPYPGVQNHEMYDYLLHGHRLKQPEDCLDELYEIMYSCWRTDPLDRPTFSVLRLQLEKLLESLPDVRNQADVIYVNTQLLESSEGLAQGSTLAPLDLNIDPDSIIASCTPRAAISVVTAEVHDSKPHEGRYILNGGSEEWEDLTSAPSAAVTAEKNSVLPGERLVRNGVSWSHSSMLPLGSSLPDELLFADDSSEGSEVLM

| SH2 binding enrichment [14] | SH2 binding enrichment [15] | SH2 binding enrichment [16] | Sequence | phosphorylation enrichment [1] | phosphorylation enrichment [2] | phosphorylation enrichment [3] | phosphorylation enrichment [4] | phosphorylation enrichment [5] | phosphorylation enrichment [6] | phosphorylation enrichment [7] | phosphorylation enrichment [8] | phosphorylation enrichment [9] | phosphorylation enrichment [10] | phosphorylation enrichment [11] | phosphorylation enrichment [12] | phosphorylation enrichment [13] |
| --- | --- | --- | --- | --- | --- | --- | --- | --- | --- | --- | --- | --- | --- | --- | --- | --- |
| 1.06 | 1.01 | 0.582 | LSNPAYRLLLA [DDR1_Y513] | 1.27 | 0.945 | 1.1 | 1.17 | 1.19 | 0.981 | 1.15 | 0.954 | 1.14 | 1.99 | 0.568 | 0.917 | 1.21 |
| 0.854 | 0.952 | 34.4 | SARHHYESLQT [BIN1_Y157] | 0.532 | 0.431 | 0.374 | 0.445 | 0.396 | 0.499 | 0.564 | 0.36 | 0.446 | 0.479 | 0.455 | 0.636 | 0.447 |
| 0.776 | 0.627 | 0.696 | ALAHEYHGGGG [HBB_Y146_K145E] | 0.469 | 0.397 | 0.314 | 0.41 | 0.361 | 0.354 | 0.461 | 0.361 | 0.425 | 0.599 | 0.287 | 0.493 | 0.41 |
| 0.686 | 0.556 | 0.358 | RRGTGYTLSLP [MAGEC3_Y152] | 0.579 | 0.553 | 0.643 | 0.772 | 0.643 | 0.564 | 0.812 | 0.73 | 0.693 | 0.477 | 0.551 | 0.764 | 0.497 |
| 0.913 | 0.462 | 0.489 | EVEFQYPFRLH [SYP_Y73_E72Q] | 1.03 | 0.64 | 0.498 | 0.475 | 0.709 | 0.524 | 1.23 | 0.445 | 0.473 | 1.1 | 0.443 | 0.885 | 0.506 |
| 0.61 | 0.573 | 0.514 | RAYRRYLLKQK [SCN2A_Y1919] | 0.729 | 0.353 | 0.468 | 0.489 | 0.495 | 0.415 | 0.491 | 0.559 | 0.51 | 0.486 | 0.387 | 0.42 | 0.446 |
| 0.661 | 0.81 | 0.606 | RRGLLYDSDEE [MCM2_Y137] | 1.25 | 0.796 | 0.642 | 0.898 | 1.3 | 1.08 | 1.13 | 1.29 | 1.16 | 0.77 | 0.855 | 0.59 | 0.763 |
| 0.702 | 0.655 | 0.574 | MDNQEYKDAYT [BRDT_Y331_K336T] | 1.33 | 0.598 | 0.796 | 0.667 | 0.783 | 0.638 | 1.33 | 0.589 | 0.673 | 1.11 | 0.586 | 0.792 | 0.546 |
| 1.07 | 0.561 | 3 | NHQYDYTFDWT [CSNK1A1_Y294] | 1.38 | 0.606 | 0.767 | 3.99 | 2.67 | 0.569 | 0.991 | 0.66 | 0.543 | 0.899 | 1.04 | 0.646 | 1.62 |

More lines, now with the values behind:

| Sequence | SH2 binding enrichment [14] | SH2 binding enrichment [15] | SH2 binding enrichment [16] | phosphorylation enrichment [1] | phosphorylation enrichment [2] | phosphorylation enrichment [3] | phosphorylation enrichment [4] | phosphorylation enrichment [5] | phosphorylation enrichment [6] | phosphorylation enrichment [7] | phosphorylation enrichment [8] | phosphorylation enrichment [9] | phosphorylation enrichment [10] | phosphorylation enrichment [11] | phosphorylation enrichment [12] | phosphorylation enrichment [13] |
| --- | --- | --- | --- | --- | --- | --- | --- | --- | --- | --- | --- | --- | --- | --- | --- | --- |
| QPDLLYDHIQP [TRRAP_Y862_F860L] | 0.733 | 0.517 | 0.832 | 3.04 | 15.2 | 18.1 | 1.02 | 1.5 | 25 | 2.01 | 13.5 | 15.1 | 1.27 | 14.4 | 3.03 | 10.3 |
| RNIQQYNSFVS [PRKAR1A_Y373] | 0.782 | 0.683 | 0.602 | 0.768 | 0.391 | 0.611 | 0.573 | 0.787 | 0.534 | 0.743 | 0.648 | 0.64 | 0.667 | 0.457 | 0.986 | 0.589 |
| PFAEPYADFGG [APBA1_Y187_S184A_YF] | 0.742 | 0.682 | 0.676 | 1.13 | 0.695 | 0.593 | 0.68 | 0.802 | 0.38 | 1.2 | 0.72 | 0.673 | 0.993 | 0.571 | 0.638 | 2.43 |
| IEENGYNTFAS [FGF10_Y161_YF] | 0.749 | 0.66 | 1.45 | 0.952 | 0.478 | 0.526 | 0.602 | 0.614 | 0.498 | 1.07 | 0.451 | 0.477 | 0.961 | 0.506 | 0.846 | 0.628 |
| KEAALYPHLPP [SQSTM1_Y383] | 0.763 | 0.708 | 0.474 | 0.67 | 0.414 | 0.373 | 0.459 | 0.649 | 0.42 | 0.796 | 0.391 | 0.362 | 1.04 | 0.391 | 0.669 | 0.48 |
| CNSFRYGGGGG [NPPA_Y151] | 0.692 | 1.29 | 0.586 | 0.857 | 0.35 | 0.552 | 0.389 | 0.469 | 0.488 | 0.766 | 0.439 | 0.349 | 0.5 | 0.348 | 0.597 | 0.311 |
| TGDFGYRAPGY [TNS2_Y668] | 0.747 | 0.619 | 0.425 | 0.545 | 0.387 | 0.413 | 0.415 | 0.435 | 0.332 | 0.546 | 0.477 | 0.376 | 0.557 | 0.31 | 0.533 | 0.441 |
